# Test results taken from the nanobody polyreactivity screen of Harvey et al. (2022).
# Test: yeast display, Sf9 membrane polyspecificity reagent, FACS + sequencing; frameworks hold sequencing errors
# Method in brief: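 Using colony PCR, genes from sorted yeast display clones were amplified, then sequenced on MiSeq at 2 × 250 and filtered by CDR length. The clones had been stained with 10% biotinylated, detergent-solubilized Sf9 membrane reagent for 1 hour at 4 °C and sorted by FACS into low and high (top ~1%) gates on anti-HA and streptavidin fluorescence. Polyreactivity labels come from the gate of origin.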
row,Sequence,polyreactivity (PSR sort gate)
1,QVQLVESGGGLVQAGGSLRLSCAASGSISVHYAMGWYRQAPGKERELVAAISRRGGSTYYADSVKGRFTISRDNAMNTVYLQMNSLKPEDTAVYYCNASYYSVIQQTWYDYWGQVTQVTVSS,high polyreactivity
2,QVQLVESGGGLVQAGGSLRLSCAASGSISVPYGMGWYRQAPGKERELVAAITGGSTNYADSVKGRFTISRDNAKNTVYLQMNSLKPEDTAVYYCAADVYWYYGAPELWYRYDYWGQGTQVTVSS,low polyreactivity
3,QVQLVESGGGLVQAGGSLRLSCAASGSISVWYVMGWYRQAPGKEREFVAAIDYGGGSTYADSVKGRFTISRDNAKNTVYLQMNSLKPEDTAVYYCNADNWVYLYDYWGQGTQVTVSS,low polyreactivity
4,QVQLVESGGGLVQAGGSLRLSCAASGSISWYYAMGWYRQAPGKERELVAAISDSGGDTYYADSVKGRFTISRDNAKNTVYLQMNSLKPEDTAVYYCATDTAYWLWVYALLEYWGQGTQVTVSS,low polyreactivity
5,QVQLVESGGGLVQAGGSLRLSCAASGSISYFNAMGWYRQAPGKERELVAAIDVSGDSTYYADSVKGRCTISRDNAKISLYLQMNSLKPEDTAVYYCAKDPTSWYRTFGHSYYWYDYWGQGTQVTVSS,low polyreactivity
6,QVQLVESGGGLVQAGGSLRLSCAASGSISYFYAMGWYRQAPGKERELVADINSGDDTYADSVKGRFTISRDNAKNTVYLQMNSLKPEDTAVYYCSVKYGGYESHYYRRPHYDYWGQGTQVTVSS,low polyreactivity
7,QVQLVESGGGLVQAGGSLRLSCAASGSISYINAMGWYRQAPGKERELVARIRSGDRTNYADSVKGRFTISRDNAKNTVYLQMNSLKPEDTAVYYCAARGLRTGGYWGQGTQVTVSS,high polyreactivity
8,QVQLVESGGGLVQAGGSLRLSCAASGSISYKYALGWYRQAPGKERELVAAISSSGGRTYYADSVKGRFTISRDNAKNTVYLQMISLKPEDTAVYYCNARTGTTWQGYEYDYWGQGTQVTVSS,low polyreactivity
9,QVQLVESGGGLVQAGGSLRLSCAASGSISYKYVMGWYRQAPGKEREFVASITRIGGSTYYADSVKGRFTISRDNAKNTVYLQMNSLKPEDTAVYYCARDYDYWSWPSAYDYWGQGTQVTVSS,low polyreactivity
10,QVQLVESGGGLVQAGGSLRLSCAASGSISYRYVMGWYRQAPGKERELVAAITTSGGSTYYADSVKGRFTISRDNAKNTVYLQMNSLKPEDTAVYDCAAKHNVYRYSRYYWGQGTQVTVSS,high polyreactivity
11,QVQLVESGGGLVQAGGSLRLSCAASGSISYTYAMGWYRQAPGKERELVAAISYSDGITYYADSVKGRFTISRDIAKNTVYLQMNSLKPEDTAVYYCAVEGVYPYYDQSEYDYWGQGTQVTVSS,high polyreactivity
12,QVQLVESGGGLVQAGGSLRLSCAASGSITPRNAMGWYRQAPGKERELVARISGSGGTTYYADSVKGRFTISRDNAKNTVYLQMKSLKPEDTAVYYCAASVRWNKYTLYDYWGQGTQVTVSS,low polyreactivity
13,QVQLVESGGGLVQAGGSLRLSCAASGSITSNVMGWYRQAPGKEMELVAAISRGGGSTYYADSVKGRFTISRDNAKNTVYLQMNSLKPEDTAVFYCAADVWGGLLPGYDYWGQGTQVTVSS,high polyreactivity
14,QVQLVESGGGLVQAGGSLRLSCAASGSIVAYNAMAWYRQAPGKEWELVAAINSGSLTYYADSVTGRFTISRDNAKYTVYLPMNSLKPEDTAVYYCAAEWERWYYRYDYWGQGTQVTVSS,high polyreactivity
15,QVQLVESGGGLVQAGGSLRLSCAASGSIVDYNAMGGYRQAPGKERELVAAISVNGGNTYYADSVKGRFTISRDYAKNTVYFQMNTLKPEDTAVYYCAADSYGGSKYDYWGQGTQVTLSS,low polyreactivity
16,QVQLVESGGGLVQAGGSLRLSCAASGSIVGSNAMGWYRQAPGKERELVAAITWSDGSPYYADSVKGRFTISRDNAKNTVYLQMNRLKPEDTAVYVCATDYGYSWYDYWGQGTQVTVSS,low polyreactivity
17,QVQLVESGGGLVQAGGSLRLSCAASGSIVRRYAMGWYRQAPGKEREFVAAISKRGGGTYYADSVKGRFTISRDNAKNTVYLQMNSLKPEDTAVYYCAAPWRRIGYTTRGYTLYDYWGQGTQVTVSS,high polyreactivity
18,QVQLVESGGGLVQAGGSLRLSCAASGSIVRYYAMGWYRQAHGKEREFVAAISWSGGSTYYADSVKGRFTISRDNAKKTVYLQRNSLKPEDTAVFFCATTPGVWSTGGTNGFGYWGQGTQVTVSS,high polyreactivity
19,QVQLVESGGGLVQAGGSLRLSCAASGSIVSYYAMGWYRKAPGKERELVAAISKSGGRTYYADSVKGRFTISRDNAKNTVYLQMNSLKPEDTAVYYCAAPATYKYEYWGQGTQVTVSS,high polyreactivity
20,QVQLVESGGGLVQAGGSLRLSCAASGSIVVDYAMGWYRQAPGKERELVAAITSTGSTTYADSVKGRFTISRDNAKNTVYLQMNSLKPEDTAVYYCAASFRWYGTVRYPYEMYYWGQGTQVTVSS,low polyreactivity
21,QVQLVESGGGLVQAGGSLRLSCAASGSIVYVYAMGWYRQAPGKEREVVAAINTSGGSTYADSVKGRFTISRDNAKNTVYLQMNSLKPEDTAVYYCAADGYYEYTWGEYDSWGQGTQVTVSS,low polyreactivity

row,Sequence,polyreactivity (PSR sort gate)
1,QVQLVESGGGLVQAGGSLRLSCAASGSIYDFYAMGWYRQAPGKERELVAAISWSGTSTYYADSVKGRFTISRDNAKNTVYLQMNSLKPEDTAVYYCAVVAGQSYFNRYDYWGQGTQVTVSS,low polyreactivity
2,QVQLVESGGGLVQAGGSLRLSCAASGSIYFTNAMGWYRQAPGKERELVAAIRWRGDRTYYADSVKGRFTISRDNGKNTVYLQMNSLIPEDTAVYYCAVAPSYKITEDSWGQGTQVTVSS,low polyreactivity
3,QVQLVESGGGLVQAGGSLRLSCAASGSIYGPYAMGLYRQAPGKERELVAAISSGGSTYYADSVKGRFTISRDNAKNTVYLQMNSLKPEDTAVYYCNKYWGFSYLPYDSWGQGTQVTVSS,low polyreactivity
4,QVQLVESGGGLVQAGGSLRLSCAASGSIYGTNAMGWYRQAPGKERELVSAIDGGSTTYYADSVKGRFTISRDNAKNTVYLQMNSLKPEDTAVYYCAADGTRYLNYEGYAGYEYWGQGTQVTVSS,low polyreactivity
5,QVQLVESGGGLVQAGGSLRLSCAASGSIYGYVKGWYRPAPGKERELVAAIRRSGGSTYYADSVKGRFTISRDNAKNTVYLQMNSLKPEDTAVYYCAARTYGTDRYYYWGQGTQVTVSS,high polyreactivity
6,QVQLVESGGGLVQAGGSLRLSCAASGSIYHVYALGWYRQAPGKERELVATISSGGSTYYADSVKGRFTISRDNEKNTVYLQMNSLKPEDTAVYYCNADWFLYGGWYGYGYWGQGTQVTVSS,low polyreactivity
7,QVQLVESGGGLVQAGGSLRLSCAASGSIYINARGWYRQAPGKERELVAAISSGGSTNYADSVKGRFTISRDNAKNTVYLQMNSLKPEDTAVFYCATRRYRGPWYRNAYDYWGQGTQVTVSS,low polyreactivity
8,QVQLVESGGGLVQAGGSLRLSCAASGSIYLIYAMGWYRQAPGKERELDAAISRSGGHTYYADSVKGRFTISRDNAKITVYLQMNSLKPEDTAVYYCAAKSYSSGTYGYNYWGQGTQVTVSS,high polyreactivity
9,QVQLVESGGGLVQAGGSLRLSCAASGSIYLKYAMGWYRQAPGKERELVAAISSRGGSTYYADSVKGRFTISRDNAKNTVYLQMNSLKPEDTAVYYCAAKRWPGTDGYWGQGTQVTVSS,high polyreactivity
10,QVQLVESGGGLVQAGGSLRLSCAASGSIYLYAMGWYIQAPGKERELVADISFSDGSTYYADSVKGRFTISRDNAKNTVYLQMNSLKPEDTAVYYCAAGVWHHASWDFLEYYYWGQGTQVTVSS,low polyreactivity
11,QVQLVESGGGLVQAGGSLRLSCAASGSIYQYNAMGWYRQAPGKERELVAAISSRGGITYYADSVKGRFTISRDNAKNTVYLQMNSLKPEDTAVYYCAAEGYYSEVRWYEYWGQGTQVTVSS,high polyreactivity
12,QVQLVESGGGLVQAGGSLRLSCAASGSIYSRNAMGWYRQAPGKERELVAGISTGGSTNYADSVKGRFTISRDNAKNTVYLQMNSLKPEDTAVYYCAAPLAYEGDYWGQGSQVTVSS,low polyreactivity
13,QVQLVESGGGLVQAGGSLRLSCAASGSIYTRYPMGWYRQAPGKERELVAAISINGGSTYYADSVKGRFTISRDNAKNTVYLHMNSLKPEDTAVYYCARHYYRWNNFLYLSGYYWGQGSQVTVSS,high polyreactivity
14,QVQLVESGGGLVQAGGSLRLSCAASGSIYTYYAMGWYRQAPGKEMELVADIRWSGGSTYYADSVKGRFTISRDNAKNTVYLQMNSLKPEDTAVYYCNARYYSYCPIYNFDYWGQGTQVTVSS,low polyreactivity
15,QVQLVESGGGLVQAGGSLRLSCAASGSIYTYYAMGWYRQAPGKERELVAAINSGGRTNYADSVKGRFTISRDNAKNTVYLQMNSLKPEDTAVYYCAADGSVSYYTYYYWGQGTQVTVSS,low polyreactivity
16,QVQLVESGGGLVQAGGSLRLSCAASGSIYYNAMGWYRQAPGKERELVASISTGDSTDYADSVKGRFTISRDNAKNTFYLQMNSLKPEDTAVYYCAADTRLGYWDDYWGQGTQVTVSS,low polyreactivity
17,QVQLVESGGGLVQAGGSLRLSCAASGSIYYRNGMGWYRQAPGKEREFVATITNNGGNTYYADSVKGRFTISRDNAKNTVYLQLNSLKPDDTAVYYCAAGPTWSWGYYYWGQGTQVTVSS,high polyreactivity
18,QVQLVESGGGLVQAGGSLRLSCAASGSKFWGYAMGWYRKAAGKERELVAAITDSGGRTYYADSVKGRFTISRDNEKNTVYLQMNSLKPEDTAVYYCAADYYSQYYYYAVPDRDYWGQGTQVTVSS,low polyreactivity
19,QVQLVESGGGLVQAGGSLRLSCAASGSLFYPYAMGWYRQAPGKERELVAAIDLSGGSTYYADAVKGRFTISRDNAKNTVYLQMNSLKPEDTAVYYCAADYGYTYAYDYWGQGTQVTVSS,low polyreactivity
20,QVQLVESGGGLVQAGGSLRLSCAASGSLFYYYPMGWYRQAPGKERELVATINISDRSTYYADSVKGRFTISRDYAKNTVYLQMNSLKPEDTAVYDCAAYYYFQDYDYWGQGTQVTVSS,low polyreactivity
